Measurements from patent US20170037110A1 (IMMATICS BIOTECHNOLOGIES, published 2017).

target: T1, HLA-A*02:01 (human); assay: UV peptide exchange ELISA
T1 construct: monomers captured on streptavidin plates; also called MHC class I
Description: Candidate peptides for T cell based therapies according to the present invention were further tested for their MHC binding capacity (affinity). The individual peptide-MHC complexes were produced by UV-ligand exchange, where a UV-sensitive peptide is cleaved upon UV-irradiation, and exchanged with the peptide of interest as analyzed. Only peptide candidates that can effectively bind and stabilize the peptide-receptive MHC molecules prevent dissociation of the MHC complexes. To determine the yield of the exchange reaction, an ELISA was performed based on the detection of the light chain (p2m) of stabilized MHC complexes.
96 well MAXISorp plates (NUNC) were coated over night with 2 μg/ml streptavidin in PBS at room temperature, washed 4× and blocked for 1 h at 37° C. in 2% BSA containing blocking buffer. […] Peptide-MHC monomers of the UV-exchange reaction were diluted 100 fold in blocking buffer. Samples were incubated for 1h at 37° C., washed four times, incubated with 2 μg/ml HRP conjugated anti-p2m for 1h at 37° C., washed again and detected with TMB solution that is stopped with […]. Absorption was measured at 450 nm.

Row | Binder | peptide exchange yield [%]
1 | SLTEYLQNV | ≥ 75
2 | SLTIDGIYYV | ≥ 75
3 | SLTIDGIRYV | 50 to 75
4 | SLTETIEGV | 20 to 50
